PMC10991328, “A distal enhancer guides the negative selection of toxic glycoalkaloids during tomato domestication”

Biological target: MYC2-GST (Solanum lycopersicum (MicroTom), UniProt A0A3Q7HRZ6 1-689)
Assay: EMSA; strong binding; 20-40 ng protein; EMSA: 10 mM Tris-HCl pH 7.2, 50 mM KCl, 1 mM DTT, 2.5% glycerol, 0.05% NP-40, 50 ng/uL poly(dI-dC), room temperature, 20 min; pull-down: 10 mM HEPES pH 7.9, 100 mM KCl, 5 mM MgCl2, 10% glycerol, 1 mM DTT, 0.5% NP-40, 4 C overnight
Settings: protein: recombinant; tags: GST (pGEX-4T-1); chain copies: 2; label: 3'-biotin; blunt

MYC2-GST, sequence (A0A3Q7HRZ6 whole entry): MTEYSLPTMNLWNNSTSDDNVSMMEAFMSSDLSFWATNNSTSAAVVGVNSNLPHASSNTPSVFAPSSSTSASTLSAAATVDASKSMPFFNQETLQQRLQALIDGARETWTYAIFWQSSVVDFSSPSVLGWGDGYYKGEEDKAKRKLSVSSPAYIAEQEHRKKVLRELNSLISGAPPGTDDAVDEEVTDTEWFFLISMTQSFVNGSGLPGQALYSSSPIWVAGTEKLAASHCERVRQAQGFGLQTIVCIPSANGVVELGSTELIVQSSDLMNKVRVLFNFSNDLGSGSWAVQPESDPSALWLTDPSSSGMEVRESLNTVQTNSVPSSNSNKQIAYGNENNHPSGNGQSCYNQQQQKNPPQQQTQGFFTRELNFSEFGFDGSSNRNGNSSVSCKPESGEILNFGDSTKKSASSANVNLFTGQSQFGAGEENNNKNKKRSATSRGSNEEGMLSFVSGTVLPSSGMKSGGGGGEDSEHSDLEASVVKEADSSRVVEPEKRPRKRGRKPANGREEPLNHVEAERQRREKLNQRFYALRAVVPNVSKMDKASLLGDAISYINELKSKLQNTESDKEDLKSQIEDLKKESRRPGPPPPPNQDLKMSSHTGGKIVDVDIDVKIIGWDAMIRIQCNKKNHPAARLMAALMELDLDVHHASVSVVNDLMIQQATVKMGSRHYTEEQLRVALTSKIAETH

B1: GE1-1 probe (dsDNA)
DNA 1: ATGTATGTGTCTAATCAAACATCGGTGGCATAATTTTTTTTAGCATCAAA
DNA 2: TTTGATGCTAAAAAAAATTATGCCACCGATGTTTGATTAGACACATACAT
binding result: binds
